Earlier results in patent US20070212358A1, “Compositions and Methods for Effecting Controlled Posterior Vitreous Detachment” (priority 2006, published 2007).

Tested on: vitreoretinal interface
Conditions: rabbit eyes

B1: plasmin (protein, UniProt P00747 20-580; P00747 581-810, looked up)
Plasmin heavy chain A: EPLDDYVNTQGASLFSVTKKQLGAGSIEECAAKCEEDEEFTCRAFQYHSKEQQCVIMAENRKSSIIIRMRDVVLFEKKVYLSECKTGNGKNYRGTMSKTKNGITCQKWSSTSPHRPRFSPATHPSEGLEENYCRNPDNDPQGPWCYTTDPEKRYDYCDILECEEECMHCSGENYDGKISKTMSGLECQAWDSQSPHAHGYIPSKFPNKNLKKNYCRNPDRELRPWCFTTDPNKRWELCDIPRCTTPPPSSGPTYQCLKGTGENYRGNVAVTVSGHTCQHWSAQTPHTHNRTPENFPCKNLDENYCRNPDGKRAPWCHTTNSQVRWEYCKIPSCDSSPVSTEQLAPTAPPELTPVVQDCYHGDGQSYRGTSSTTTTGKKCQSWSSMTPHRHQKTPENYPNAGLTMNYCRNPDADKGPWCFTTDPSVRWEYCNLKKCSGTEASVVAPPPVVLLPDVETPSEEDCMFGNGKGYRGKRATTVTGTPCQDWAAQEPHRHSIFTPETNPRAGLEKNYCRNPDGDVGGPWCYTTNPRKLYDYCDVPQCAAPSFDCGKPQVEPKKCPGR
Plasmin light chain B: VVGGCVAHPHSWPWQVSLRTRFGMHFCGGTLISPEWVLTAAHCLEKSPRPSSYKVILGAHQEVNLEPHVQEIEVSRLFLEPTRKDIALLKLSSPAVITDKVIPACLPSPNYVVADRTECFITGWGETQGTFGAGLLKEAQLPVIENKVCNRYEFLNGRVQSTELCAGHLAGGTDSCQGDSGGPLVCFEKDKYILQGVTSWGLGCARPNKPGVYVRVSRFVTWIEGVMRNN
modifications: Plasmin
posterior vitreous detachment (PVD) in eyes treated with plasmin (plasmin treatment): some areas of PVD
detachment of the vitreous after plasmin treatment and vitrectomy (plasmin treatment with subsequent vitrectomy): substantially detached
